# Laboratory results: patent US11597752B2, “Peptides and combination of peptides and scaffolds thereof for use in immunotherapy against colorectal carcinoma (CRC) and other cancers” (priority 2015, dated 2023)
# Target: HLA-A*02:01 (Homo sapiens, UniProt P04439, D140Y/D185E/D98H/E176V/E277Q/G131W/G231S/I119V/I121R/I166T/I218V/L300P/L318F/N151K/N90K/P208A/P217A/Q86G/Q94H/R138H/R169H/T345S)
# Test: MHC binding assay (UV-ligand exchange, beta2m ELISA, peptide exchange yield)
# Conditions: binding to HLA-A*02:01, β2m ELISA
# From the text: Candidate peptides for T cell based therapies according to the present invention were further tested for their MHC binding capacity (affinity). The individual peptide-MHC complexes were produced by UV-ligand exchange, where a UV-sensitive peptide is cleaved upon UV-irradiation, and exchanged with the peptide of interest as analyzed. Only peptide candidates that can effectively bind and stabilize the peptide-receptive MHC molecules prevent dissociation of the MHC complexes. To determine the yield of the exchange reaction, an ELISA was performed based on the detection of the light chain (β2m) of stabilized MHC complexes. The assay was performed as generally described in Rodenko et al. (Rodenko et al., 2006).
# 96 well MAXISorp plates (NUNC) were coated over night with 2 ug/ml streptavidin in PBS at room temperature, washed 4× and blocked for 1 h at 37° C. in 2% BSA containing blocking buffer. Refolded HLA-A*02:01/MLA-001 monomers served as standards, covering the range of 15-500 ng/ml. Peptide-MHC monomers of the UV-exchange reaction were diluted 100 fold in blocking buffer. Samples were incubated for 1 h at 37° C., washed four times, incubated with 2 ug/ml HRP conjugated anti-β2m for 1 h at 37° C., washed again and detected with TMB solution that is stopped with […]. Absorption was measured at 450 nm. Candidate peptides that show a high exchange yield (preferably higher than 50%, most preferred higher than 75%) are generally preferred for a generation and production of antibodies or fragments thereof, and/or T cell receptors or fragments thereof, as they show sufficient avidity to the MHC molecules and prevent dissociation of the MHC complexes.
row,Substance,"Peptide exchange (MHC class I binding score, peptide exchange yield)"
1,3 (RLIPDTLYSV; listed as Homo sapiens) [compound 3],“++++” (≥75% = ++++)
2,4 (RLAELTVDEFL; listed as Homo sapiens) [compound 4],“+++” (≥50 = +++)
3,5 (WLFDDGGLTL; listed as Homo sapiens) [compound 5],“++++” (≥75% = ++++)
4,6 (FLAELPGSLSL; listed as Homo sapiens) [compound 6],“+++” (≥50 = +++)
5,8 (ALMLQGVDLL; listed as Homo sapiens) [compound 8],“+++” (≥50 = +++)
6,13 (FLLAEDTKV; listed as Homo sapiens) [compound 13],“+++” (≥50 = +++)
7,14 (FLDKPEDVLL; listed as Homo sapiens) [compound 14],“++” (≥20% = ++)
8,15 (LQLDKEFQL; listed as Homo sapiens) [compound 15],“+++” (≥50 = +++)
9,16 (VLVDQSWVL; listed as Homo sapiens) [compound 16],“+++” (≥50 = +++)
10,17 (ALAAARVEL; listed as Homo sapiens) [compound 17],“+++” (≥50 = +++)
11,19 (RLYTKLLNEA; listed as Homo sapiens) [compound 19],“+++” (≥50 = +++)
12,20 (YLKDGDVML; listed as Homo sapiens) [compound 20],“+++” (≥50 = +++)
13,22 (GLIDEVMVL; listed as Homo sapiens) [compound 22],“+++” (≥50 = +++)
14,23 (FLDANGHFV; listed as Homo sapiens) [compound 23],“+++” (≥50 = +++)
15,24 (VLDGVLMEL; listed as Homo sapiens) [compound 24],“+++” (≥50 = +++)
16,25 (SLADRLIGV; listed as Homo sapiens) [compound 25],“++++” (≥75% = ++++)
17,26 (GLASKENFSNVSL; listed as Homo sapiens) [compound 26],“++” (≥20% = ++)
18,27 (LLADEDSSYL; listed as Homo sapiens) [compound 27],“++” (≥20% = ++)
19,28 (ALTEIQEFI; listed as Homo sapiens) [compound 28],“++++” (≥75% = ++++)
20,29 (QMLDVAIRV; listed as Homo sapiens) [compound 29],“+++” (≥50 = +++)
21,30 (GLSSAYGGL; listed as Homo sapiens) [compound 30],“+” (≥10% = +)

row,Substance,"Peptide exchange (MHC class I binding score, peptide exchange yield)"
1,31 (LLYGKYVSV; listed as Homo sapiens) [compound 31],“+++” (≥50 = +++)
2,32 (KLNTETFGV; listed as Homo sapiens) [compound 32],“++” (≥20% = ++)
3,33 (ALWEKNTHL; listed as Homo sapiens) [compound 33],“+++” (≥50 = +++)
4,34 (ILLEKSVSV; listed as Homo sapiens) [compound 34],“+++” (≥50 = +++)
5,35 (KLLDLTVRI; listed as Homo sapiens) [compound 35],“+++” (≥50 = +++)
6,36 (GLLESPSIFNFTA; listed as Homo sapiens) [compound 36],“+++” (≥50 = +++)
7,40 (ALSNVIHKV; listed as Homo sapiens) [compound 40],“++” (≥20% = ++)
8,41 (ILDDSFKLL; listed as Homo sapiens) [compound 41],“++” (≥20% = ++)
9,43 (TLDAAQPRV; listed as Homo sapiens) [compound 43],“++” (≥20% = ++)
10,44 (SLESKLTSV; listed as Homo sapiens) [compound 44],“+++” (≥50 = +++)
11,45 (ALAELLHGA; listed as Homo sapiens) [compound 45],“+++” (≥50 = +++)
12,46 (GLDDRYSLV; listed as Homo sapiens) [compound 46],“+++” (≥50 = +++)
13,48 (FLDASDPAL; listed as Homo sapiens) [compound 48],“++” (≥20% = ++)
14,50 (TLMAEMHVV; listed as Homo sapiens) [compound 50],“+++” (≥50 = +++)
15,51 (QVWEIQHTV; listed as Homo sapiens) [compound 51],“++” (≥20% = ++)
16,52 (ALDSSNSMQTI; listed as Homo sapiens) [compound 52],“++” (≥20% = ++)
17,53 (FLLGSEIKL; listed as Homo sapiens) [compound 53],“+++” (≥50 = +++)
18,54 (ALLNGEYLLAA; listed as Homo sapiens) [compound 54],“+++” (≥50 = +++)
19,56 (VLFTDEGVPKFL; listed as Homo sapiens) [compound 56],“++” (≥20% = ++)
20,57 (NLLEKENYL; listed as Homo sapiens) [compound 57],“+++” (≥50 = +++)
21,58 (AMADKMDMSL; listed as Homo sapiens) [compound 58],“++” (≥20% = ++)

row,Substance,"Peptide exchange (MHC class I binding score, peptide exchange yield)"
1,60 (VLDEDEPRFL; listed as Homo sapiens) [compound 60],“++” (≥20% = ++)
2,61 (KLLKLFQGV; listed as Homo sapiens) [compound 61],“+++” (≥50 = +++)
3,62 (YLAPENGYL; listed as Homo sapiens) [compound 62],“++” (≥20% = ++)
4,63 (KLFSILSTV; listed as Homo sapiens) [compound 63],“++” (≥20% = ++)
5,66 (GLDDGPDFL; listed as Homo sapiens) [compound 66],“++” (≥20% = ++)
6,67 (SLNDLEKDVMLL; listed as Homo sapiens) [compound 67],“+++” (≥50 = +++)
7,68 (SILQFVHMV; listed as Homo sapiens) [compound 68],“+++” (≥50 = +++)
8,69 (GMLNEAEGKAIKL; listed as Homo sapiens) [compound 69],“++” (≥20% = ++)
9,70 (MISELEVRL; listed as Homo sapiens) [compound 70],“+++” (≥50 = +++)
10,71 (RLWTEIPTAI; listed as Homo sapiens) [compound 71],“+++” (≥50 = +++)
11,72 (YLLDYPNNLL; listed as Homo sapiens) [compound 72],“+++” (≥50 = +++)
12,73 (YLFDIAVSM; listed as Homo sapiens) [compound 73],“+++” (≥50 = +++)
13,74 (YLMGFLHAV; listed as Homo sapiens) [compound 74],“+++” (≥50 = +++)
14,75 (EMIENIQSV; listed as Homo sapiens) [compound 75],“++” (≥20% = ++)
15,76 (YLIGEKQHYL; listed as Homo sapiens) [compound 76],“+++” (≥50 = +++)
16,77 (SLLKRDFGA; listed as Homo sapiens) [compound 77],“++” (≥20% = ++)
17,78 (ALDPELLLL; listed as Homo sapiens) [compound 78],“++” (≥20% = ++)
18,79 (SLAADQLLKL; listed as Homo sapiens) [compound 79],“++” (≥20% = ++)
19,80 (QVDEVVDIMRV; listed as Homo sapiens) [compound 80],“++” (≥20% = ++)
20,81 (ALLSQQTHL; listed as Homo sapiens) [compound 81],“+++” (≥50 = +++)
